Data published in PMC7824358, “The Influence of the Mixed DPC:SDS Micelle on the Structure and Oligomerization Process of the Human Cystatin C” (Membranes, 2020).

Legend:
[1] = molecular target: human cystatin C V57P variant (human) (UniProt P01034); assay: SEC; analytical gel filtration, Superdex 75 PC 3.2/30, eluted with PBS; protein 30 μM in PBS incubated 24 h at 22 °C with dilution series of DPC:SDS (5:1) mixed micelle, DPC or SDS; dimer retention ca. 13.5 min, monomer ca. 16 min; dimer to monomers
[2] = molecular target: the molecule itself; assay: SEC; hCC WT incubated 24 h in 25 mM sodium acetate buffer pH 4.0, 150 mM NaCl, 1 mM benzamidine hydrochloride; dimer separated from monomer on Superdex 75 10/300 GL; monomer to dimer

Row | stoichiometry N [1] | Molecule | stoichiometry N [2]
1 | 2 | human cystatin C V57P variant (from UniProt P01034 27-146) (natural protein) | –
2 | – | human cystatin C (hCC) wild-type (natural protein, UniProt P01034 27-146, looked up, human cystatin C, expressed from the pHD313 vector behind the E. coli OmpA signal peptide; Used as a monomer sample and as a dimer sample made by incubation at pH 4.0 and separated by SEC; also called hCC WT; WT) SSPGKPPRLVGGPMDASVEEEGVRRALDFAVGEYNKASNDMYHSRALQVVRARKQIVAGVNYFLDVELGRTTCTKTQPNLDNCPFHDQPHLKRKAFCSFQIYAVPWQGTMTLSKSTCQDA | 2
